Results on one substance are retold here after patent US20190144863.

Bounds are passed on as bounds.

The target of the data set is EZH2 (UniProt Q61188). As to the kind of experiment: filter. The note with it: negative control RNA.
Sequence of EZH2 (Q61188 whole entry): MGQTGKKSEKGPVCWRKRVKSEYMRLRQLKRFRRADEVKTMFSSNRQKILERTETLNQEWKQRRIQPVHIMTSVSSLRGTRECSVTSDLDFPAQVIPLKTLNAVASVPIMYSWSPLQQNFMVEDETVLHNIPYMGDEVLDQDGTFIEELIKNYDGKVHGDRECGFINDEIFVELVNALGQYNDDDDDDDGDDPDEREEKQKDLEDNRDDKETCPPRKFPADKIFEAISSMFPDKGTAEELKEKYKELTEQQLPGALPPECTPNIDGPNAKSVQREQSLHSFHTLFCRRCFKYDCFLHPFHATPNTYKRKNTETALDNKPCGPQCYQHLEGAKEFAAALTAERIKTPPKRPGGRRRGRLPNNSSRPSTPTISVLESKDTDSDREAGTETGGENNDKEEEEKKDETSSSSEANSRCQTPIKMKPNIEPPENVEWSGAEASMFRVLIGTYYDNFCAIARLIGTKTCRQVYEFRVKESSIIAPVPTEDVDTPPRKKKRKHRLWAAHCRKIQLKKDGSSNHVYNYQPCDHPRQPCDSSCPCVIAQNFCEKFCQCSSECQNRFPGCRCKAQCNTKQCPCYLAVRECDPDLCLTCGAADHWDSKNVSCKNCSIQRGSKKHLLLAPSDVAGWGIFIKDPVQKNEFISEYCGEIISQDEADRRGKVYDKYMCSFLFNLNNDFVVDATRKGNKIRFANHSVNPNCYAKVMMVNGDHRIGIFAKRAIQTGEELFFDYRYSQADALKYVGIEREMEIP

In general, Kd refers to a measure of binding affinity in units of concentration. A lower Kd goes with higher affinity. For the substance P4P6 RNA, the Kd is > 3000 nM.
